Results on 21 molecules are retold here after patent US12503511 (COMPASS THERAPEUTICS, dated 2025).

Where a chain is given by its changes, count along the chain named.

T1: murine PD-1 expressed on cells (murine, UniProt Q02242 25-288)
T1 construct: whole, on cells; also called muPD-1; mouse PD-1
T1 sequence (looked up): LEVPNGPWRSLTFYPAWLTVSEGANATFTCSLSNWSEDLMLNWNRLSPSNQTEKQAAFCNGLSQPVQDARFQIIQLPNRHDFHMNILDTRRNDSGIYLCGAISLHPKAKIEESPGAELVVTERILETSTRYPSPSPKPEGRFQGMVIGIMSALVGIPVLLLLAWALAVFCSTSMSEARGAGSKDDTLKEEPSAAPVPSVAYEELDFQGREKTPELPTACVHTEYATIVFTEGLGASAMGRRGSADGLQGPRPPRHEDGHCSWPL

B1: mAb25 (antibody, V domains shown)
VH: EVQLLESGGGLVQPGGSLRLSCAASGFTFSDYAMSWVRQAPGKGLEWVSAISNSGTYTYYADSVKGRFTISRDNSKNTLYLQMNSLRAEDTAVYYCARGLDFIVGATGNDYWGQGTLVTVSS
VL: not shown
notes: also called parent PD-1 antibody mAb25
B2: mAb35 (antibody, V domains shown)
VH: B1 VH with D31G, A106R
VL: not shown
B3: mAb37 (antibody, V domains shown)
VH: B1 VH with S30R, D31S, A106R
VL: not shown
B4: mAb27 (antibody, V domains shown)
VH: B1 VH with D31S, A106Y
VL: not shown
B5: mAb34 (antibody, V domains shown)
VH: B1 VH with D31N
VL: not shown
B6: mAb29 (antibody, V domains shown)
VH: B1 VH with D31N, M34L, A106Y
VL: not shown
B7: mAb36 (antibody, V domains shown)
VH: B1 VH with D31S, S35N, A106R
VL: not shown
B8: mAb26 (antibody, V domains shown)
VH: B1 VH with A106Y
VL: not shown
B9: mAb33 (antibody, V domains shown)
VH: B1 VH with S30N, D31S, A106Y
VL: not shown
B10: mAb32 (antibody, V domains shown)
VH: B1 VH with S30G, D31R, A106Y
VL: not shown
B11: mAb31 (antibody, V domains shown)
VH: B1 VH with S30R, D31S, A106Y
VL: not shown
B12: mAb30 (antibody, V domains shown)
VH: B1 VH with D31A, S35N, A106Y
VL: not shown
B13: mAb7 (antibody, V domains shown)
VH: QVQLVQSGAEVKKPGSSVKVSCKASGGTFSSYAINWVRQAPGQGLEWMGGIIPNFGTATYAQKFQGRVTITADESTSTAYMELSSLRSEDTAVYYCARLKGELKGAGDIWGQGTLVTVSS
VL: not shown
B14: mAb11 (antibody, V domains shown)
VH: B13 VH with I51V, N54F, F55L, T59N, E102I, G105D, G107L
VL: not shown
B15: mAb23 (antibody, V domains shown)
VH: B13 VH with N54V, G105D, G107F, L115M
VL: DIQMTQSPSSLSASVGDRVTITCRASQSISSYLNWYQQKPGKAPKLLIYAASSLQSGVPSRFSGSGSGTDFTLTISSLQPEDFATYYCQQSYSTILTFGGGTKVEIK
B16: mAb12 (antibody, V domains shown)
VH: B13 VH with N35S, G44D, N54I, F55V, T57I, T59N, G105D, G107F
VL: not shown
B17: mAb16 (antibody, V domains shown)
VH: B13 VH with G50R, N54I, T59D, G105D, G107F
VL: not shown
B18: mAb21 (antibody, V domains shown)
VH: B13 VH with T28P, S30R, Y32H, I34V, N35S, N54V, G101S, G105D, G107F
VL: not shown
B19: mAb15 (antibody, V domains shown)
VH: B13 VH with N35S, G50R, I52N, N54I, F55L, T59N, G105D, G107F, D108S
VL: not shown
B20: mAb14 (antibody, V domains shown)
VH: B13 VH with N35S, G50R, N54L, T59H, G105D, G107F
VL: not shown
B21: mAb13 (antibody, V domains shown)
VH: B13 VH with N35S, N54V, L103F, G105D, G107F
VL: not shown

T5 sequence (Q9NZQ7 19-290 limits assumed): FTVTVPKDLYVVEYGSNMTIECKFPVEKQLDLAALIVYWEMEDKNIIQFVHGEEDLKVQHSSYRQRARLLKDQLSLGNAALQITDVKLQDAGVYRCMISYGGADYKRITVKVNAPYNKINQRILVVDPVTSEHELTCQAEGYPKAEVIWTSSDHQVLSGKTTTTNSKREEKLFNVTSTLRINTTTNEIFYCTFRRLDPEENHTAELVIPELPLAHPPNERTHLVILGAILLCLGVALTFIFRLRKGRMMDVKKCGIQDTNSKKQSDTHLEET
T3 sequence (Q9EP73 19-290): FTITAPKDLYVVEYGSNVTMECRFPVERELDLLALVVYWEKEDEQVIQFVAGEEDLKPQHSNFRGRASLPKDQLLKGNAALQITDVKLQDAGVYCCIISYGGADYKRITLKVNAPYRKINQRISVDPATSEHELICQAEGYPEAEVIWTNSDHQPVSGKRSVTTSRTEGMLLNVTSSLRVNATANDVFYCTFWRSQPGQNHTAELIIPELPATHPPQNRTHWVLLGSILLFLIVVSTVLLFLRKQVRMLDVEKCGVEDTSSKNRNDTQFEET

In the first test the target is T2, human PD-1 expressed on cells (human, UniProt Q15116 25-288).
T2 construct: also called huPD-1; CHO cells expressing human PD-1
T2 sequence (Q15116 25-288 limits assumed): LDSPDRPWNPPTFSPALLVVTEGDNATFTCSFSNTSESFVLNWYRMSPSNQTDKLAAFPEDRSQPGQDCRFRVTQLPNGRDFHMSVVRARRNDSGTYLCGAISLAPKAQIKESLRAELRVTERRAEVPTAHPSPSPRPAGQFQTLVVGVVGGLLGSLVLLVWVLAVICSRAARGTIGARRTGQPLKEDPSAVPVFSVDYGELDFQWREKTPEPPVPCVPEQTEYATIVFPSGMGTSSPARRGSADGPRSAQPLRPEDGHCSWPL
The test is described as follows: cell binding titration, CHO cells expressing human PD-1.
On to B1, for which the EC50 (commonly the concentration needed to bring the measured effect to its halfway point) stood at 0.915 nM.
On the same count and under the same terms, the value for B2 was 1.64 nM.
The same measure, in the same setting: under B3 stands 0.75 nM.
Still for that read-out and setting: under B4 stands 1.75 nM; under B5, 3.87 nM; under B6, 1.27 nM.
On to B7, for which the EC50 was 1.01 nM.
B8 gave an EC50 of 3.74 nM.
On the same count and under the same terms, under B9 stands 1.04 nM.
Same read-out and setting: the value for B10 was 1.51 nM; that for B11 was 1.71 nM.
B12 came in with an EC50 of 2.77 nM.

Another test addresses T3, murine PD-L1 expressed on cells (murine, UniProt Q9EP73 19-290).
T3 construct: whole, on cells; also called muPDL1; mouse PD-L1
Put plainly: cell binding titration, A20 cells expressing murine PD-L1.
In the case of B13, the binding result is given as “no binding”.
As for B14, the binding result was “no binding”.
For the molecule B15, the binding result is “no binding”.
With B16, the binding result was “no binding”.
Regarding B17, the binding result is “no binding”.
Still for that read-out and setting: the value for B18 was “no binding”; that for B19 was “no binding”.
The same measure, in the same setting: under B20 stands “no binding”; under B21, “no binding”.

A further test has as its target T4, cyno PD-1 expressed on cells (cynomolgus).
T4 construct: whole, on cells; also called cyPD-1; cynomolgus PD-1
The test is described as follows: cell binding titration, CHO cells expressing cyno PD-1.
For the molecule B1, the EC50 stood at 8.59 nM.
B2 returned an EC50 of 2.66 nM.
The same measure, in the same setting: the value for B3 was 1.09 nM; that for B4 was 1.53 nM.
For B5, the 50% effective concentration (EC50) turned out to be 1.33 nM.
On the same count and under the same terms, the value for B6 was 1.73 nM.
As for B7, the EC50 came to 1.19 nM.
In turn, B8 showed an EC50 of 1.54 nM.
The same measure, in the same setting: under B9 stands 1.33 nM.
As for B10, the EC50 turned out to be 1.29 nM.
Turning to B11, a half-maximal response (EC50) required 1.9 nM.
Same read-out and setting: the value for B12 was 2.05 nM.

Another test has as its target T5, human PD-L1 expressed on cells (human, UniProt Q9NZQ7 19-290).
T5 construct: also called huPDL1; human PD-L1 on HEK cells
The test is described as follows: cell binding titration, HEK cells expressing human PD-L1.
B14 yielded an EC50 of 1.37 nM.
The molecule B15 returned a concentration for a half-maximal effect (EC50) of 0.83 nM.
The same measure, in the same setting: the value for B16 was 1.23 nM; that for B18 was 0.14 nM; that for B20 was 1.54 nM.
The same measure, in the same setting: under B21 stands 1.43 nM.

In the next test the target is T6, purified recombinant His tagged human PD-1 (human, UniProt Q15116 25-170).
T6 construct: not shown: His tag
T6 sequence (Q15116 25-170 limits assumed): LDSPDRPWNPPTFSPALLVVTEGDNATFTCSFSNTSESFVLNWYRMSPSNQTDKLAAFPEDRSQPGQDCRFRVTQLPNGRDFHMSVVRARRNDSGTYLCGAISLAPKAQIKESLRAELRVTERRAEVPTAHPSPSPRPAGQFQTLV
Put plainly: SPR (Carterra MX96), antibody on chip, His-tagged human PD-1 injected.
As to B1, the Kd (usually the concentration at which binding is half-saturated) turned out to be 240 nM.
In the case of B2, the dissociation constant (Kd) is 9 nM.
Still for that read-out and setting: the value for B3 was 14 nM.
Still for that read-out and setting: under B4 stands 2.3 nM; under B5, 7.2 nM; under B6, 8.6 nM.
On the same count and under the same terms, under B7 stands 7.7 nM; under B8, 10 nM.
As for B9, the Kd was found to be 7 nM.
Still for that read-out and setting: the value for B10 was 2.1 nM; that for B11 was 5.5 nM.
As to B12, the Kd worked out at 3.1 nM.

A further test concerns the target T1, murine PD-1 expressed on cells. The test is described as follows: cell binding titration, CHO cells expressing murine PD-1.
Regarding B1, the binding result was “no binding”.
For the molecule B3, the EC50 was determined as 0.942 nM.
On the same count and under the same terms, the value for B4 was 6.14 nM; that for B5 was 20.5 nM.
As to B6, the EC50 was determined as 2.14 nM.
Same read-out and setting: the value for B8 was 17.9 nM; that for B9 was 10.4 nM.
The same measure, in the same setting: under B10 stands 2.8 nM; under B11, 1.87 nM; under B12, 4.05 nM.

The target of another test is T7, purified recombinant His tagged human PD-L1 (human, UniProt Q9NZQ7 19-238).
T7 construct: not shown: His tag
T7 sequence (Q9NZQ7 19-238 limits assumed): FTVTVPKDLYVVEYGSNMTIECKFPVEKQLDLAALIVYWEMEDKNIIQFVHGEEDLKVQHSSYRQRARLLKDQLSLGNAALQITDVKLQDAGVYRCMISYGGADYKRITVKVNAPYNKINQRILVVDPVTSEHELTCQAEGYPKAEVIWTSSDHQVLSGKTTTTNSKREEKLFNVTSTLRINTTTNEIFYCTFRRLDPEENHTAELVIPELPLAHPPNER
The test is described as follows: SPR KD; fold improvement, reference taken as parent mAb24.
As to B18, the “Fold Improvement” value amounted to 0.1 fold.
Regarding B21, the “Fold Improvement” value was determined as 0.1 fold.

In a further test the target is T7, purified recombinant His tagged human …. The test is described as follows: SPR (Carterra MX96), antibody on chip, His-tagged human PD-L1 injected.
On to B14, for which the Kd was determined as 156 nM.
Take B15: the Kd turned out to be 369 nM.
For the molecule B16, the Kd amounted to 358 nM.
For the molecule B18, the Kd is 91.5 nM.
Still for that read-out and setting: under B21 stands 52.3 nM.

Another test concerns the target T5, human PD-L1 expressed on cells. The test is described as follows: cell binding EC50 on HEK-human PD-L1; fold improvement, reference taken as parent mAb24.
Take B14: the “Fold Improvement” value is 0.1 fold.
On the same count and under the same terms, under B15 stands 0.2 fold; under B16, 0.1 fold.
On to B18, for which the “Fold Improvement” value stood at 1 fold.
B20: the “Fold Improvement” value amounted to 0.1 fold.
Still for that read-out and setting: the value for B21 was 1 fold.

In the next test the target is T4, cyno PD-1 expressed on cells. The test is described as follows: cell binding EC50 on CHO-cyno PD-1; fold improvement over parent mAb25.
Consider B2, for which the “Fold improvement over Parent” value stood at 3.2 fold.
Same read-out and setting: the value for B3 was 7.9 fold; that for B4 was 5.6 fold.
The same measure, in the same setting: under B5 stands 6.5 fold; under B6, 5 fold.
Same read-out and setting: under B7 stands 7.2 fold; under B8, 5.6 fold; under B9, 6.5 fold.
Consider B10, for which the “Fold improvement over Parent” value was determined as 6.7 fold.
Turning to B11, the “Fold improvement over Parent” value turned out to be 4.5 fold.
Same read-out and setting: the value for B12 was 4.2 fold.

The target of the next test is T6, purified recombinant His tagged human …. Put plainly: SPR KD; fold improvement over parent mAb25.
Regarding B2, the “Fold improvement over Parent” value is 27 fold.
With B3, the “Fold improvement over Parent” value came to 17 fold.
Take B4: the “Fold improvement over Parent” value worked out at 104 fold.
The same measure, in the same setting: under B5 stands 33 fold; under B6, 28 fold.
Same read-out and setting: under B7 stands 31 fold; under B8, 24 fold; under B9, 34 fold.
In the case of B10, the “Fold improvement over Parent” value turned out to be 114 fold.
On the same count and under the same terms, the value for B11 was 44 fold.
Still for that read-out and setting: under B12 stands 77 fold.

The target of a further test is T2, human PD-1 expressed on cells. Put plainly: cell binding EC50 on CHO-human PD-1; fold improvement over parent mAb25.
Take B2: the “Fold improvement over Parent” value is 0.6 fold.
Turning to B3, the “Fold improvement over Parent” value came out at 1.2 fold.
For the molecule B4, the “Fold improvement over Parent” value was determined as 0.5 fold.
B5: the “Fold improvement over Parent” value was 0.2 fold.
Still for that read-out and setting: the value for B6 was 0.7 fold; that for B7 was 0.9 fold; that for B8 was 0.2 fold.
On the same count and under the same terms, under B9 stands 0.9 fold; under B10, 0.6 fold; under B11, 0.5 fold.
Still for that read-out and setting: the value for B12 was 0.3 fold.
